{"source": "the DeepSol protein solubility set"}
{"experiment": "soluble on expression in E. coli; label from the status in PepcDB or PDB records"}
{"sequence": "MGSDKIHHHHHHMRTALLEVGLEELPASEFHSILKQLEEKSAELLKAYRVSSGSVEVFVGSRRFGVILKNLPERQEDFTEEKKGPPLNVAYDENGKPTRALEGFLRNNNASLENVVHREGYVYLSRVVEGKPVEEVLPDLFRDLVLGLNFRKPMRWGSGEHEYIRPVHWIVAMVDGRVLDLEIFGLRSSRISYGKRYHAGSIEIPDSERYYESLKKGFVISSHLERKKFVLEQIDEFEKRSSMKIERDEELIEEIVAITEYPRIVVGQFDRKYLELPEEIIVTAVKHHQRSFIAHKGTLTNTFVAFQDGPQPPENVVKGYERVINARLEDARYYFQKDLETPLEKMNEKLKEIVFQEKLGTLYDKVERIKKISQRLCEDLKLPGSFTQKVLEAASICKADIASKVVYEFPELQGVMGRIYALREGINEEIATAIEDHYSEEPQTVIGSILGIADRIDTIVGNFAIGNVPTSSKDPYGLKSKADTIFRIIRKNEWDISLEELLTFASSLVGYRLSEELETFFAGRFYQFLINELGISFDVARAVNHLWKKPLRGILSAEALQEISEKPEFQDLFVGFERVHNITKNHDSTKFDGALFEKEEEKKLMNKFYEVKEKVLKALERLNYREALQYLIELKPYIDEYFDNVFVMVKRDDLRVNRLSFLKNIDELFMMVGDMTYLVKRSQV", "soluble on expression in E. coli": "not soluble"}
{"sequence": "MGSDKIHHHHHHMRVEDILDQLVMQSRDQDGAKYYISLINDMRIDRSVDPVKSIILEILSLCSDGRIDPWDVDLLKFAEIMNSFFGNSFIDFQFAGKAIADAWRVLRIKSDMSPKEQDRQMNDIGCEEPEDTDNFIPQNQVVIQLVPSVLTPQSRPVVLVDLIDEIRRKMYSSRLQKKKVDVHIEFDSSKLNPDRSEEMIEKTYRAIIESGKQKVFMSEIWGNTRRERAVFFLYSMFLFRDGRISLSQEEPNGDILIETNVI", "soluble on expression in E. coli": "not soluble"}
{"sequence": "MGSDKIHHHHHHMRVEIIFLGCGGGRWATITQKKATGGFRIHTNELRMHVDPGPGAIVRLNELKISPWRTNALFISHCHPDHYTDGEIIVEAITQGMTKKRGVFLGSLSVVEGFGEYEYVVSKYHQSKLEEVRVLYPGDSAELYDTTIKATHTKHGDPFGIGFRLSTIYGDIGYTSDTEFIPQLIEDFDGVRILIANIVRKKNERIKGHLCSNDAIDLINSMNKKPELLIMNHMGVKMTNPQIEAEYISQNTGIEVIPARLGLKVELLNGKYKYQLIK", "soluble on expression in E. coli": "not soluble"}
{"sequence": "MGSDKIHHHHHHMRVLGLILAGGKSDRLWPLTKVRASAAVPVFGKYRAIDFTLSNMVNSGIRKVGILTQYNPRSLMDHLGSGKEWDLDRKSGGLFILQPYVGPNREVWYRGTADAIFQNMTILRRGEEDHVLIGSGDHIYKMIYRDLFNYHLKKGADITLVVKELDETYNLSEYGIVQLDDDMRVVEIEEKPAHPKGNIAFLGVYFMNKELLKELLYATVPQGKYDLLLDIVIPNLDRLKVYAYRFDGYWRNVKKGIKEYYRINMDILKKEVRDELFYRNGKVYTKLKDLPPPKFTTTAVVENSLIADGSIVSGTVRNSVIFRNVRIKVGAVVENSIIMENTVVEEGAVLRNVILDKNCIVREGRVIEGDTELPVFEKRAVL", "soluble on expression in E. coli": "not soluble"}
{"sequence": "MGSDKIHHHHHHMRVLHFYKTYLSETVGGIEQVIFQLCESSGSWGIDNHVLTLSSDPHPPVVPFGGHVVHRARLDLQLASTGFSLSVFKQFRELAAEADVVNYHFPWPFMDLVHFLTGMNKPSVVTYHSDIIRQRVLLKLYRPLMSRFLHSVDRIVAASPNYFSTSDVLRQYREKTRVITYGLDKDGYPKPATQRLEHWREKLGPRFFLFVGVMRYYKGLHILLDALQGTDYPVVIVGAGPLQAELYAQAAALGLRNVHFLGRVDDEDKVALLQLSYAMVFPSHLRSEAFGISLLEGAMYGKPMISSEIGTGTSYINIHGETGLVVPPSQPAAFRQAMRWLWEHPQQAEEMGRNAEARYRQLFTAEEMGRRWSELYRELLEEKASSRYVKAAR", "soluble on expression in E. coli": "not soluble"}
{"sequence": "MGSDKIHHHHHHMRVLVKLSGEALSGEGGRGFDPERVNYIVNEIKSAIEEGFKIGIVVGAGNLFRGVELKNLTMTRADQIGLLGTVMNSVYLKDIFERSGLKARIYSQIVNLPDVERVNYDSIESALRENSILIFAGGTSNPFFTTDTAAVLRAQEMRAKLVVKATKVDGVYDKDPKKFPDAKKIPHLTFSEAMKMGLKVMDAEAFALCKKLGITVKVINFFEPGTLLKALKGEDVGSTVVPD", "soluble on expression in E. coli": "not soluble"}
{"sequence": "MGSDKIHHHHHHMRVMAFVQARMGSTRLPGKSLMPVWNGMGVLEMTLRRALRARTLSGVVLCTSTDPACDALETLASGLGVQAFRGPEDDVLTRYALATERFEPDAVVRICADSPLVCPEGIDALVAFFRDEGLDYAAHAMDGTGLPDGLGCEVFTAAALAQAHAEATAPEDREHVSLFIRHRPERFRQATLAADAALRAPGVSLDVDTQDDLDALRRFIMALPPSEGPFWSADAIAPLARGLHTPPQGTSMDIASDDYHDFFIRDGKLIGEFEQMYRKSRHAPWHQDEACDKWFNKVSAALVGHALDDPSVRTVFEVGSGLGYFLSQFAGEGRTLTGTDVSATAVEKARALFPGISFEVDDIRFEGRRGPYDLCLMQAVCWCIFPHMDDVVRNVTATVRPGGYLFLGECFQPLDGPFAGKDVIPTPDALIGHFSHAFDTVADVRVTRGEMGGGPIIYWLGRRRG", "soluble on expression in E. coli": "not soluble"}
{"sequence": "MGSDKIHHHHHHMRYHIALVGRRNSGKSSLLNMLAGQQISIVSDIKGTTTDAVAKAYELQPLGPVTFYDTAGIDDEGTLGAMRVSATRRVLFRSDMALLVVDEQGLCPSDMALIDEIRQLQMPILMVFNKADICTPKAEDIAFCQNQSLPFIVVSAATGLAGKQLKQLMVELAPAEYKQEPLLAGDLYQAGDVILCVVPIDMAAPKGRLILPQVQILREALDRSAIAMVVKETELAQALSVVTPKLVISDAQAIKQVAAIVPDAVPLTTFSTLFARFKGDLAALATGADALDTLQDGDKVLISEACSHNVQEDDIGRVKLPRWINSYTGKQLEFVVTSGHDFPNDLEQYALVIHCGACMFNRNEMLRRIRECQRRQVPITNYGVAISKLQGVLPRVLTPFNRNPQQ", "soluble on expression in E. coli": "not soluble"}
{"sequence": "MGSDKIHHHHHHMSAEPIIQVENLSKMYRLGLKNEIHDSIAEAAVSWLKTPVKNYRNLKSLNTFGVPVDEDDPGVLWALRDVSFEVAEGEVLGIIGRNGAGKSTLLKVLSRITEPTRGRVIINGRVASLLEVGTGFHPDLTGRENVFMNGSILGMRKGEIAAKFDEIVDFAGLDRFIDTPIKRYSSGMVMRLAFSVAAHLEPEILIIDEVLAVGDAAFQKKCLDKMHKVASGGRTVLFVSHQLNSVSALCGRVMHMDSGRIIKNGDTRQVIDHYLTSAGFGVTTALHDRKDRCGAGHVRFVNSWIEDMQGNRLASAVSGEPVRIALEYQSHAEESFSDVKVYLRLYSMLNKPAGLFSNVYTEERIDISAGENGVLYCTVPRMMLNGGRYFFHLKLEAQGRQLDHIENAGYMEVEAGNVYANGKMPNDQWVYLHDYGWSGEPLHKG", "soluble on expression in E. coli": "not soluble"}
{"sequence": "MGSDKIHHHHHHMSAIPQAARKRGRPVKGESATLRDELILKSAKLFRTQGYERTTVRDIAAAAGVQAGSWFYYFKTKQDILVAVMEQGMSNALARIEALDVEHLPARDAFRALVHTHLHTLVSPDHDFIPVLLYEWKSLDEAMQAKVLKLKDRYEAVWDGVIERLQAAGEWPAPTPIDRLLMFGALNWVAQWYKPDGALGLDALAEHAVRFLLRTAETPAPAPAGTAKRRRGVKAS", "soluble on expression in E. coli": "not soluble"}
{"sequence": "MGSDKIHHHHHHMSAPDSAPGTERGHERTHFAVVGDSQDPAQATAPRAPAESITLIGIGTDGFEGLGLKAQQALQRASVVIGSWRQLNLVPDAIKAERRPWPGNTKHPDLDALFKEFLGRHVAVLASGDPLFYGVGTAMVHVLGMDRLTVIPGPSSASLACARLGWTVNRTRVVYLGQEPIETLIPIIESGAQFLVLGKDEFSTAQVATLLNELGLGETPLTVLSDLGSTDEEITQGTASHPPAAVSVLNVIAVGARTAMPKPHFEGDVSNEDLRALTVAALEPTQGQMLWTFGDIGAALACDWLRAAGNKAHAISFASMVEQSQRNARKLGVSTLSVKETLSPKTLKDIRYVQGPESASPHAIFMNKGLGIDLVPETAWMMLRPGGKLIAQASTEDNIAKLHTLQEQHGGIIKHIRIDDTDVHQWRVTKPVTPEAVN", "soluble on expression in E. coli": "not soluble"}
{"sequence": "MGSDKIHHHHHHMSAPRSICLLRLSAIGDTCNAAAVVNAIRQHYPEAEITWVIGKAEAALMAGMDGVNFVVFDKKRGMAAYRNLRRQLQGKRFDALLLMQVALRANLASLCISAKRRIGYDKAKSKELHSLFINERIEPTDKVHVLDNFRQFQKSLGIPLEEPDWNIPVNAEDRGWAKAQLDPNTSKHLIITAAASNTERNWLPDRYAAVADYAASQGFSVYLCGGPADYEKQLAANIQAHAKHSLHNLVGQSSLKQLFALIGEASLVLAPDTGPAHMAVAAGTPVIGLYAHSNPKRTGPYLWQNYVVDAYTPALKQTRGETPEQSRWGQRLKGAELMENITTEQVIDMLDRCIQEQNL", "soluble on expression in E. coli": "not soluble"}
{"sequence": "MGSDKIHHHHHHMSASSQSPKGDGLLQTISVKILKRVGKEEVAYVYLGETSRGNLVEFVESIQPPVPREKKWVLIVSTLAGCPVGCLMCDAGGFYRGKLSADEIFEQIDFLVKSRYPNGRIPSEKFKIQFARMGEPALNEAVLDVLKELPARYEAPGLMPSISTVAPCGTDSFFEDLLKIKEKHYRGKFQLQFSIHSTDEKERDQIIPVKKWSLEKISEFGKRFVKENDRKITLNFAVAQEYSLDPKVIIRVFDPEKFLVKITPVNPTYRSKENNLNSDVDVERKELLKHRNFIEELKKAGFEVILSIGELEENKIGSNCGQYVQRHLMSERKIVDGYQYV", "soluble on expression in E. coli": "not soluble"}
{"sequence": "MGSDKIHHHHHHMSDAKLQSVLSSLSQVARQLDALPSDTPAPDSSWVKLNTNENPFPLPEIIMQSAIAALERQYLYPEDDNISLREAAANAYSVSMDQVIAGNGSSELLGLVYRAFLTPGDSVAMMSPGFSFNRKLATLQGAQFVEIEFSKDHSLPMEQLLFGPAKDAKFILLANPNNPTGTFVPVADIERLVAKSDRLIVLDEAYVDFAPENGLRLINRYSNLLVLRTFSKSYAAAGVRVGFGFGHPEIIGRLRNIQNVFNMNVIGQAVGISVLAHRAAYADNHRHIRHERRRVTLALSQLGFSVIPSHANFLLARVPTAQDGSWWQSAFARQKILVAVFPDKGLENYIRVSIGTKEQMDAFLRAASRISRILNMSTPPR", "soluble on expression in E. coli": "not soluble"}
{"sequence": "MGSDKIHHHHHHMSELKLPKDDRSIEVYRLSGTPVAVEKRSAADFNRVAFAAAHVVADPFADNDPWLTPAIDWEATLRFRHRLWDLGLGVAEAMDTAQRGMGLAWPQAQELISRSLKEAASRKDALIACGVGTDHLDSGGYDLNQIIDSYLEQLDFVQGEGGRVILMASRALAAAARSPDDYLKAYARVLSRAEQKVVIHWLGEMFDPALKGYWGSGDHMAAMETCLAMIEENAEKIDGIKISLLSKDKEIVMRRRLPAGVRMYTGDDFNYAELIAGDEQGHSDALLGIFDAIAPAASKALASLKRGADNEFFDILEPTVALSRHIFKAPTRFYKTGVVFLAYLNGLQDHFTMVGGQESTRSTQHFTELFRLADKANVLAEPDLATHRMKAFLAVRGIG", "soluble on expression in E. coli": "not soluble"}
{"sequence": "MGSDKIHHHHHHMSENHWENQPGTPPDVTPECGQESDGERLYLWRQIVHWRSGTGGSQCNPLIELDKQNHWSVMNGGATGASGWLLVPTDRKKGIECRDIWTHRDPNYWNAAWGYVRSPYGSPTTTGLGINSKDKRTQDQLHIHIATFQSDAKTYLDARSPSEIATTPGDWAKKLLTVPSDSKPGQVYRVLHVKDLATDNLFNLLQSNVVSSDQMGNQTMIVIPAKSGGFYVLNSDISLSQGAAFGTGTCNHLLKCS", "soluble on expression in E. coli": "not soluble"}
{"sequence": "MGSDKIHHHHHHMSEQNWTDTGRFDNKAAEWDANAIRAALADAVARAIIAHMPVGKPANALEFGCGTGLVTTRIAPHCLQLTAVDSSREMLRMLGEKIAASAIANVTPLHLDFSRPEEAAGLDRDYDFVYSSMTLHHIPDTASFLRELIGHMSPGGALAIADLDAEDGLFHNDATEKVHHGFDRTELQALLESAGFAGVSFMTAHIIEKKNREGNLKNYPVFLVTAVKPKA", "soluble on expression in E. coli": "not soluble"}
